Experimental data published in patent US11673916B2, “Neuroprotective peptides and methods of their use” (University of Pittsburgh—Of the Commonwealth System of …, priority 2020, dated 2023).

Molecular target: T1, Kv2.1 surface clusters (Rattus norvegicus, UniProt P15387)
T1 construct: expressed in transfected cells; host or cells: primary rat cortical neurons (E16-17 Sprague-Dawley), Lipofectamine 2000
T1 sequence (P15387 1-857): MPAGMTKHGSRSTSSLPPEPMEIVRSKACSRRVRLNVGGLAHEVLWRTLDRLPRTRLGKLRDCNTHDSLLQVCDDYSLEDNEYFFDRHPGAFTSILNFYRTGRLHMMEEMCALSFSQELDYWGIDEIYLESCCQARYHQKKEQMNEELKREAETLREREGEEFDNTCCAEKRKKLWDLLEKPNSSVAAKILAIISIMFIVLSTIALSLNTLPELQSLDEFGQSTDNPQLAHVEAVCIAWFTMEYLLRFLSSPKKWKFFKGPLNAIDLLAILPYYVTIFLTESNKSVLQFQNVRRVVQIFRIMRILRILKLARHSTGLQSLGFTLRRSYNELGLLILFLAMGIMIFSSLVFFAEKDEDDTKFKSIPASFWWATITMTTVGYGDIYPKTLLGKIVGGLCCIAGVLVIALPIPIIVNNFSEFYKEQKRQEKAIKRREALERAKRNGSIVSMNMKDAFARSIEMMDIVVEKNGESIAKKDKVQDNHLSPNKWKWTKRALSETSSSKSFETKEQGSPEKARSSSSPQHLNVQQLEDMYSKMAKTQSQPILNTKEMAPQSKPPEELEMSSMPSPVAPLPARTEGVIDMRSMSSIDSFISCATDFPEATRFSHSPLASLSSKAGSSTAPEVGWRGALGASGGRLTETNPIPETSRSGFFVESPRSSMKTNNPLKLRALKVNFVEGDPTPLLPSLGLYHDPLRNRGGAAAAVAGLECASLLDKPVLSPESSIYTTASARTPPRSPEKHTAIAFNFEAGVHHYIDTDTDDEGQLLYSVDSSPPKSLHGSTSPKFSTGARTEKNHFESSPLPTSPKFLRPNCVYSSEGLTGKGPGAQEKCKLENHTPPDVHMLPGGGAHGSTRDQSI
Assay: Kv2.1 surface cluster density in live Kv2.1-GFP-transfected cortical neurons treated with TAT-linked peptides
Format: cell-based
Experimental: In vitro experiments utilized primary cortical neuronal cultures prepared from embryonic day 16-17 Sprague-Dawley rats of either sex in a protocol described previously (McCord et al., J Physiol (Lond). 592: 3511-3521, 2014). Timed-pregnant rats (Charles River Laboratories, Wilmington, Mass.) were sacrificed by CO2 inhalation. Embryonic cortices were dissociated with trypsin (0.6 mg/mL) and cells plated in sterile 6-well plates on poly-L-ornithine-coated glass coverslips at a density of 670,000 cells per well. Cytosine arabinoside (1-2 μM) was utilized to inhibit non-neuronal proliferation on day 14 in vitro (DIV); cultures were utilized at 21-25 DIV.
; Invitrogen, Carlsbad, Calif.). […]; Thermo Fisher Scientific, Waltham, Mass.). […]. Cultures were utilized 18-24 hours following transfection. cDNA amounts for each transfection experiment are described below for each figure. FIG. 1: 0.375 μg/well Kv2.1-GFP plasmid, 0.495 μg/well pcDNA3 vector plasmid, and 0.63 μg/well of either DP-1 or Sc-1, or Kv2.2 CT-expressing plasmid. FIGS. 2, 8, 9, 10, 12: 0.375 μg/well Kv2.1-GFP plasmid, 0.15 μg/well tdTomato plasmid (from Gerhart Ryffel; Addgene plasmid #30530), and 0.975 μg/well pcDNA3 vector plasmid.
To analyze Kv2.1 distribution in live primary cortical neurons, cells were transfected with both a tdTomato construct and a GFP-tagged Kv2.1 construct (O'Connell, et al., J Neurosci. 26: 9609-9618, 2006) and imaged on a Nikon A1+ confocal microscope (Nikon, Tokyo, Japan). Cells were chosen at random by looking only at the tdTomato signal (561 nm), in order to avoid bias. At least three separate culture dates were used per experiment and three coverslips were transfected per condition each time. For these experiments, “n” refers to the total number of cells imaged. Five to 15 optical sections (0.5 μm) capturing the cell surface were obtained of single cells at 60× magnification (Schulien et al., J Physiol (Lond). 594: 2647-2659, 2016), creating a maximum-intensity projection (MAX-IP) of Kv2.1-GFP distribution. To analyze Kv2.1 distribution in the cerebral cortex of fixed brain slices, 51-54 image fields were obtained at 60× magnification across 18 sections from three fixed mouse brains per treatment (total of 6 animals). Image fields were captured by first focusing on an area of superficial cortex closest to the cover glass. Next, 24 optical sections (0.5 μm) were obtained moving deeper into the tissue in order to produce a 12 μm maximum-intensity projection for analysis of Kv2.1 distribution. Laser power, HV (gain), offset, pinhole size, and all camera parameters were kept identical between all samples in a given experiment. Nikon Instruments Software Advanced Research (NIS-Elements AR) was utilized to analyze GFP-tagged Kv2.1 channel cluster distribution. For live images of transfected neurons, object count parameters were customized to define a Kv2.1 cluster as an area of high intensity GFP fluorescence (compared to background), measuring 0.05 μm^2 or larger (Schulien et al., J Physiol (Lond). 594: 2647-2659, 2016). Kv2.1 cluster density was calculated by normalizing the number of Kv2.1 clusters counted to the somatic area of each neuron (#Kv2.1 clusters/μm^2). Due to high variability in GFP-Kv2.1 expression between individual neurons, intensity thresholding required cell-specific local-background subtraction. In each neuron analyzed, two populations on Kv2.1-GFP expression were first noted—(a) highly localized signals of clustered Kv2.1 channels, and (b) diffuse background staining that represents freely-dispersed, conducting Kv2.1 channels on the plasma membrane. A small region of interest (ROI) within region (b) was set as the background subtraction standard of the image, creating an optimal signal-to-noise ratio for clustered Kv2.1 channels. […]

[1] = 3 μM peptide, two-hour treatment, mean±SEM (FIG. 2B)
[2] = 10 μM peptide, two-hour treatment, mean±SEM (FIG. 2B)

Sequence	mean Kv2.1 surface cluster density [1]	mean Kv2.1 surface cluster density [2]	mean Kv2.1 surface cluster density (10 μM, 2 h after initiation of treatment, mean+/-SEM (FIG. 9))	mean Kv2.1 surface cluster density (10 μM, 24 h after initiation of treatment, peptide removed after two hours, mean+/-SEM (FIG. 9))	time-course of Kv2.1 surface cluster dispersal (10 μM, before, 60 and 120 minutes post-treatment (FIG. 8))	concentrations at which effective as in vitro declustering tool (hypothesized from the 3 μM and 10 μM results) [µM]
YGRKKRRQRRRSIDSFTS [TAT-DP-2, TAT-linked declustering peptide 2]	0.07±0.02 #Kv2.1 clusters/μm^2 of neuronal soma	0.08±0.01 #Kv2.1 clusters/μm^2 of neuronal soma	0.06±0.01 #Kv2.1 clusters/μm^2 of neuronal soma	0.09±0.01 #Kv2.1 clusters/μm^2 of neuronal soma	time-dependent	3 to 10
YGRKKRRQRRRDFSSIST [TAT-Sc-2, TAT-linked scramble control peptide]	0.15±0.01 #Kv2.1 clusters/μm^2 of neuronal soma	0.16±0.02 #Kv2.1 clusters/μm^2 of neuronal soma				
